According to the MegaScale stability set (Tsuboyama et al. 2023):

B1: HHH_rd1_0493 (parent)
chain: RDEDEKEKIKEALKRGNEDKAKEIAKRANVSPEEYERLRKEAE

Variants of: B1
Assay: folding stability dG (cDNA display proteolysis); higher = more stable
Conditions: PBS, room temperature

Row | Variant | folding stability dG [kcal/mol]
1 | RDEDEKEKIKEALKRGNEDKAKEIAKRANVSPEEYERCRKEAE [L38C] | 1.29
2 | RDEDEKEKIKEALKRGNEDKAKEIAKRANVSPEEYERHRKEAE [L38H] | 0.352
3 | RDEDEKEKIKEALKRGNEDKAKEIAKRANVSPEEYERDRKEAE [L38D] | 0.129
4 | RDEDEKEKIKEALKRGNEDKAKEIAKRANVSPEEYERERKEAE [L38E] | 0.322
5 | RDEDEKEKIKEALKRGNEDKAKEIAKRANVSPEEYERGRKEAE [L38G] | 0.162
6 | RDEDEKEKIKEALKRGNEDKAKEIAKRANVSPEEYERARKEAE [L38A] | 0.829
7 | RDEDEKEKIKEALKRGNEDKAKEIAKRANVSPEEYERFRKEAE [L38F] | 1.58
8 | RDEDEKEKIKEALKRGNEDKAKEIAKRANVSPEEYERIRKEAE [L38I] | 2.76
9 | RDEDEKEKIKEALKRGNEDKAKEIAKRANVSPEEYPRLRKEAE [E36P] | 0.261
10 | RDEDEKEKIKEALKRGNEDKAKEIAKRANVSPEEYHRLRKEAE [E36H] | 1.75
11 | RDEDEKEKIKEALKRGNEDKAKEIAKRANVSPEEYIRLRKEAE [E36I] | 1.88
12 | RDEDEKEKIKEALKRGNEDKAKEIAKRANVSPEEYTRLRKEAE [E36T] | 1.7
13 | RDEDEKEKIKEALKRGNEDKAKEIAKRANVSPEEYSRLRKEAE [E36S] | 1.75
14 | RDEDEKEKIKEALKRGNEDKAKEIAKRANVSPEEYDRLRKEAE [E36D] | 2.7
15 | RDEDEKEKIKEALKRGNEDKAKEIAKRANVSPEEYKRLRKEAE [E36K] | 1.49
16 | RDEDEKEKIKEALKRGNEDKAKEIAKRANVSPEEYYRLRKEAE [E36Y] | 1.52
17 | RDEDEKEKIKEALKRGNEDKAKEIAKRANVSPEEYCRLRKEAE [E36C] | 2.86
18 | RDEDEKEKIKEALKRGNEDKAKEIAKRANVSPEEYGRLRKEAE [E36G] | 1.13
19 | RDEDEKEKIKEALKRGNEDKAKEIAKRANVSPEEYVRLRKEAE [E36V] | 1.5
20 | RDEDEKEKIKEALKRGNEDKAKEIAKRANVSPEEYARLRKEAE [E36A] | 2.31

Row | Variant | folding stability dG [kcal/mol]
21 | RDEDEKEKIKEALKRGNEDKAKEIAKRANVSPEEYRRLRKEAE [E36R] | 1.67
22 | RDEDEKEKIKEALKRGNEDKAKEIAKRANVSPEEYNRLRKEAE [E36N] | 2.19
23 | RDEDEKEKIKEALKRGNEDKAKEIAKRANVSPEEYQRLRKEAE [E36Q] | 2.11
24 | RDEDEKEKIKEALKRGNEDKAKEIAKRANVSPEEYFRLRKEAE [E36F] | 1.6
25 | RDEDEKEKIKEALKRGNEDKAKEIAKRANVSPEEYWRLRKEAE [E36W] | 1.68
26 | RDEDEKEKIKEALKRGNEDKAKEIAKRANVSPEEYMRLRKEAE [E36M] | 2.24
27 | RDEDEKEKIKEALKRGNEDKAKEIAKRANVSPEEYLRLRKEAE [E36L] | 2.24
28 | RDEDEKEKIKEALKRGNEDKAKEIAKRANVSPEERERLRKEAE [Y35R] | 0.281
29 | RDEDEKEKIKEALKRGNEDKAKEIAKRANVSPEEVERLRKEAE [Y35V] | 1.59
30 | RDEDEKEKIKEALKRGNEDKAKEIAKRANVSPEEQERLRKEAE [Y35Q] | 0.44
31 | RDEDEKEKIKEALKRGNEDKAKEIAKRANVSPEEWERLRKEAE [Y35W] | 2.58
32 | RDEDEKEKIKEALKRGNEDKAKEIAKRANVSPEELERLRKEAE [Y35L] | 2.26
33 | RDEDEKEKIKEALKRGNEDKAKEIAKRANVSPEEMERLRKEAE [Y35M] | 2.29
34 | RDEDEKEKIKEALKRGNEDKAKEIAKRANVSPEEHERLRKEAE [Y35H] | 0.142
35 | RDEDEKEKIKEALKRGNEDKAKEIAKRANVSPEEGERLRKEAE [Y35G] | -0.05
36 | RDEDEKEKIKEALKRGNEDKAKEIAKRANVSPEETERLRKEAE [Y35T] | 0.361
37 | RDEDEKEKIKEALKRGNEDKAKEIAKRANVSPEEFERLRKEAE [Y35F] | 3.53
38 | RDEDEKEKIKEALKRGNEDKAKEIAKRANVSPEESERLRKEAE [Y35S] | 0.291
39 | RDEDEKEKIKEALKRGNEDKAKEIAKRANVSPEENERLRKEAE [Y35N] | -0.057
40 | RDEDEKEKIKEALKRGNEDKAKEIAKRANVSPEEKERLRKEAE [Y35K] | 0.009

Row | Variant | folding stability dG [kcal/mol]
41 | RDEDEKEKIKEALKRGNEDKAKEIAKRANVSPEEIERLRKEAE [Y35I] | 1.39
42 | RDEDEKEKIKEALKRGNEDKAKEIAKRANVSPEEYENLRKEAE [R37N] | 2.35
43 | RDEDEKEKIKEALKRGNEDKAKEIAKRANVSPEEYEHLRKEAE [R37H] | 2.12
44 | RDEDEKEKIKEALKRGNEDKAKEIAKRANVSPEEYEWLRKEAE [R37W] | 2.16
45 | RDEDEKEKIKEALKRGNEDKAKEIAKRANVSPEEYEQLRKEAE [R37Q] | 2.63
46 | RDEDEKEKIKEALKRGNEDKAKEIAKRANVSPEEYEVLRKEAE [R37V] | 2.24
47 | RDEDEKEKIKEALKRGNEDKAKEIAKRANVSPEEYEYLRKEAE [R37Y] | 2.05
48 | RDEDEKEKIKEALKRGNEDKAKEIAKRANVSPEEYEPLRKEAE [R37P] | -0.529
49 | RDEDEKEKIKEALKRGNEDKAKEIAKRANVSPEEYELLRKEAE [R37L] | 2.42
50 | RDEDEKEKIKEALKRGNEDKAKEIAKRANVSPEEYETLRKEAE [R37T] | 2.22
51 | RDEDEKEKIKEALKRGNEDKAKEIAKRANVSPEEYESLRKEAE [R37S] | 2.27
52 | RDEDEKEKIKEALKRGNEDKAKEIAKRANVSPEEYEALRKEAE [R37A] | 2.51
53 | RDEDEKEKIKEALKRGNEDKAKEIAKRANVSPEEYEILRKEAE [R37I] | 2.44
54 | RDEDEKEKIKEALKRGNEDKAKEIAKRANVSPEEYEELRKEAE [R37E] | 2.4
55 | RDEDEKEKIKEALKRGNEDKAKEIAKRANVSPEEYEMLRKEAE [R37M] | 2.49
56 | RDEDEKEKIKEALKRGNEDKAKEIAKRANVSPEEYEFLRKEAE [R37F] | 2.15
57 | RDEDEKEKIKEALKRGNEDKAKEIAKRANVSPEEYEDLRKEAE [R37D] | 2.02
58 | RDEDEKEKIKEALKRGNEDKAKEIAKRANVSPEEYEKLRKEAE [R37K] | 2.68
59 | RDEDEKEKIKEALKRGNEDKAKEIAKRANVSPEEYEGLRKEAE [R37G] | 1.77
